From patent publication US20260098102A1 (NATIONAL UNIVERSITY CORPORATION KOBE UNIVERSITY, published 2026)
Substitutions are numbered along the chain they refer to.

T1: monkey SIRPA protein (cynomolgus monkey, UniProt P78324 31-504 (human entry))
T1 construct: Expressed on 293α cells from pcDNA3.2 V5-DEST or pFLAG V5-DEST vectors; also called cynomolgus monkey SIRPA; cSIRPA
T1 chain: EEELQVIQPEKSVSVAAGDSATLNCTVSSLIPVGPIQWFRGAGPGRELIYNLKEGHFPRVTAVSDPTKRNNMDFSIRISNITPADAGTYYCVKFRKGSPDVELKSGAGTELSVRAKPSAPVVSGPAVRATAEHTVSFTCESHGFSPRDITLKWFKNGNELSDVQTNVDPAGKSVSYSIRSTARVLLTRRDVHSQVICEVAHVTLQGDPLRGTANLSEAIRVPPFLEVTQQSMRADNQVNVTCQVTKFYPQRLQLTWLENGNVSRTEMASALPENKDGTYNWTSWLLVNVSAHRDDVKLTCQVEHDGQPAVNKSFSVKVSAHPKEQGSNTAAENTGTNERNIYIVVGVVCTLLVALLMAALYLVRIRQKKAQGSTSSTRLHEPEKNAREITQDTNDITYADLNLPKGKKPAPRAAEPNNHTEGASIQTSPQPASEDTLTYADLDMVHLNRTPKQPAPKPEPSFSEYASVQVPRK

B1: human chimeric anti-SIRPA antibody cD13 (antibody, human IgG4 S228P, kappa, F234A L235A, V domains shown)
VH: EVQLVESGGGLVQPGRSLKLSCLASGFTFSDYGMIWVRQAPGKGLEWVASISSSSSYIYYADTVKGRFTISRENAKNTLFLHMTSLRSEDTALYYCARRYYGFNYPFDYWGQGVMVTVSS
VL: DTVLTQSPALAVSLGQRVTISCGASKSVRTYMHWYQQKSGQQPKLLIYSASNLEAGVPSRFSGSGSGTDFTLTIDPVEADDIANYYCQQSNEPPYTFGAGTKLELKR
notes: Human IgG4proFALA heavy chain, human kappa light chain; also called cD13 (IgG4pf); human chimeric antibody D13
B2: humanized anti-SIRPA antibody hD13_H1L3 (antibody, human IgG4 S228P, kappa, F234A L235A, V domains shown)
VH: QVQLVESGGGVVQPGRSLRLSCAASGFTFSDYGMIWVRQAPGKGLEWVASISSSSSYIYYADSVKGRFTISRDNSKNRLYLQMNSLRAEDTAVYYCARRYYGFNYPFDYWGQGTMVTVSS
VL: DTQLTQSPSSLSASVGQRVTITCGASKSVRTYMHWYQQKPGKQPKLLIYSASNLEAGVPSRFSGSGSGTDFTLTISSLQPEDFATYYCQQSNEPPYTFGQGTKLEIKR
notes: hH1 heavy chain (IgG4proFALA) and hL3 kappa light chain; also called hD13_HIL3; HIL3 antibody
B3: humanized anti-SIRPA antibody hD13_H2L2 (antibody, human IgG4 S228P, kappa, F234A L235A, V domains shown)
VH: B2 VH with Q1E, R78T
VL: B2 VL with D1A, T2I, Q43A
notes: hH2 heavy chain (IgG4proFALA) and hL2 kappa light chain; also called H2L2 antibody
B4: humanized anti-SIRPA antibody hD13_H1L4 (antibody, human IgG4 S228P, kappa, F234A L235A, V domains shown)
VH: B2 VH
VL: DTVLTQSPDSLAVSLGQRATINCGASKSVRTYMHWYQQKPGQQPKLLIYSASNLEAGVPSRFSGSGSGTDFTLTISSLQAEDVAVYYCQQSNEPPYTFGQGTKVEIKR
notes: hH1 heavy chain (IgG4proFALA) and hL4 kappa light chain; also called hD13_HIL4; hD13_HIL4h
B5: humanized anti-SIRPA antibody hD13_H2L3 (antibody, human IgG4 S228P, kappa, F234A L235A, V domains shown)
VH: B2 VH with Q1E, R78T
VL: B2 VL
notes: hH2 heavy chain (IgG4proFALA) and hL3 kappa light chain; also called H2L3 antibody

Target: T2, human SIRPA_V6 (human, UniProt P78324 31-504)
T2 construct: FLAG-tagged (pFLAG V5-DEST), on 293α cells; also called human SIRPA Variant 6
T2 sequence (P78324 31-504 S105P limits assumed): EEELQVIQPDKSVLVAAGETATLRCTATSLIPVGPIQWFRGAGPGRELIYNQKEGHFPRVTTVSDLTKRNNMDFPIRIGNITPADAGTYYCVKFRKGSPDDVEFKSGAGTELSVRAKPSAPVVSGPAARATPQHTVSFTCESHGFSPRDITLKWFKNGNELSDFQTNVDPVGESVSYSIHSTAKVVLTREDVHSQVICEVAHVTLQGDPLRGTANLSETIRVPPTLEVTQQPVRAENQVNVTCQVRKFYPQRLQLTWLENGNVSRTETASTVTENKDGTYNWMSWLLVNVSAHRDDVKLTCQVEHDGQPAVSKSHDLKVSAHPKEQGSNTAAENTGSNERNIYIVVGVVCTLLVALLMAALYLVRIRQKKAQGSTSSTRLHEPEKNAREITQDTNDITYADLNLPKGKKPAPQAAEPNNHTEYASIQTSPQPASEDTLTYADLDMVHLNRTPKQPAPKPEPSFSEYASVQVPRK
Assay: cell-based ELISA on 293α cells expressing FLAG-tagged SIRPA_V6; Abs 490 normalized to FLAG tag [ii]
Description: (§1) The 293a cells, described in Example 1)-6, were prepared at 5× 10⁵ cells/mL in a 10% FBS-containing DMEM medium. pFLAG V5-DEST-SIRPA_V1-V10, pFLAG V5-DEST-monkey SIRPA, pFLAG V5-DEST-mouse SIRPA, or pFLAG V5-DEST was introduced into the cells using Lipofectamine LTX (Invitrogen), and 100 μL each was aliquoted to a 96-well plate (Corning Incorporated) and cultured overnight in a 10% FBS-containing DMEM medium at 37° C. under a 5% CO₂ condition. The obtained introduced cells were used for cell-based ELISA in a state that they adhered. After the culture supernatant was removed, 50 μL per well of hD13_HIL3, hD13_HIL4h, hD13_H2L2, hD13_H2L3, or cD13 prepared in Examples 6 and 7 or a control antibody was added to each of various SIRPA genes-introduced cells at a final concentration of 0 to 10,000 ng/ml, and the mixture was allowed to stand at 4° C. for one hour. Thereafter, binding to human SIRPA was evaluated in the same manner as in Example 5-1.

Binder | EC50 (read off the curve)
B1 | ~40 ng/mL
B2 | ~40 ng/mL
B3 | ~40 ng/mL
B4 | ~40 ng/mL
B5 | ~40 ng/mL

Target: T3, human SIRPA_V5 (human, UniProt P78324 31-504)
T3 construct: FLAG-tagged (pFLAG V5-DEST), on 293α cells; also called human SIRPA Variant 5
T3 sequence (P78324 other isoform, or with tags, fused parts or gaps limits assumed): as the sequence (P78324 31-504 S105P limits assumed) above, with S12F, P75S counted along it
Assay: cell-based ELISA on 293α cells expressing FLAG-tagged SIRPA_V5; Abs 490 normalized to FLAG tag [i]
Description: as §1

Binder | EC50 (read off the curve)
B1 | ~40 ng/mL
B2 | ~40 ng/mL
B3 | ~40 ng/mL
B4 | ~40 ng/mL
B5 | ~40 ng/mL

Target: T4, human SIRPA_V2 protein (human, UniProt P78324 31-504)
T4 construct: Expressed on 293α cells from pcDNA3.2 V5-DEST or pFLAG V5-DEST (FLAG-tagged) vectors; also called human SIRPA Variant 2; ECD variant (full-length, amino acids 1 to 504)
T4 sequence (P78324 other isoform, or with tags, fused parts or gaps limits assumed): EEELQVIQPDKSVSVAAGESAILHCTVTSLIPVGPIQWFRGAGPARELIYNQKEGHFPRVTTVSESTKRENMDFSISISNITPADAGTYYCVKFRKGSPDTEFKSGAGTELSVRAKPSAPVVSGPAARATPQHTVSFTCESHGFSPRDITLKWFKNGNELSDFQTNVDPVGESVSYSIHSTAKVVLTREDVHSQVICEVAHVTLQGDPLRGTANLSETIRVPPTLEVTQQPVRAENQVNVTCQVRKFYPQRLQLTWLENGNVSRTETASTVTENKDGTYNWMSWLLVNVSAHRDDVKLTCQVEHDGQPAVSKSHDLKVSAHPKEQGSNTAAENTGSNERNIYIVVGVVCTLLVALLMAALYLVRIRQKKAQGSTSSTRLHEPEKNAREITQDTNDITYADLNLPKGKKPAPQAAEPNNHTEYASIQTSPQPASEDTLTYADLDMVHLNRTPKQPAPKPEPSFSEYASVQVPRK
Assay: blocking cell-based ELISA: peroxidase-labeled CD47-Fc (1 µg/mL) on 293α cells expressing SIRPA_V2; y axis = CD47-Fc signal relative to no antibody (100)
Description: (§2) After the culture supernatant of human SIRPA or monkey SIRPA expression vector-introduced 293α cells prepared in Example 8)-1 was removed, 50 μL per well of hD13_HIL3, hD13_HIL4h, hD13_H2L2, or hD13_H2L3 diluted with 5% FBS-containing PBS to a final concentration of 0 to 10,000 ng/ml was added to each of pcDNA3.2 V5-DEST-SIRPA_V1, pcDNA3.2 V5-DEST-SIRPA_V2, pcDNA3.2 V5-DEST-monkey SIRPA, and pcDNA3.2 V5-DEST-introduced 293α cells, immediately followed by addition of peroxidase-labeled CD47-Fc prepared with 5% FBS-containing PBS at 1 μg/mL, and the mixture was allowed to stand at 4° C. for one hour. Thereafter, the SIRPA-CD47 binding inhibitory activity was evaluated in the same manner as in 1)-6-3.

Binder | IC50 (read off the curve)
B1 | ~800 ng/mL
B2 | ~600 ng/mL
B3 | ~800 ng/mL
B4 | ~700 ng/mL
B5 | ~700 ng/mL

Target: T1, monkey SIRPA protein
Assay: cell-based ELISA on 293α cells expressing FLAG-tagged monkey SIRPA; Abs 490 normalized to FLAG tag

Binder | EC50 (read off the curve)
B1 | ~100 ng/mL

Target: T5, human SIRPA_V1 protein (human, UniProt P78324 31-504)
T5 construct: Expressed on 293α cells from pcDNA3.2 V5-DEST or pFLAG V5-DEST (FLAG-tagged) vectors; also called human SIRPA Variant 1; hSIRPA V1
T5 sequence (P78324 31-504 limits assumed): as the sequence (P78324 31-504 S105P limits assumed) above, with P75S counted along it
Assay: blocking cell-based ELISA: peroxidase-labeled CD47-Fc (1 µg/mL) on 293α cells expressing SIRPA_V1; y axis = CD47-Fc signal relative to no antibody (100)
Description: as §2

Binder | IC50 (read off the curve)
B1 | ~700 ng/mL
B2 | ~500 ng/mL
B3 | ~600 ng/mL
B4 | ~500 ng/mL
B5 | ~600 ng/mL
